Results published in paper PMC314469, “Protein Interaction Networks by Proteome Peptide Scanning” (PLoS Biology, 2004).

T1: Rvs167 SH3 (RV167_YEAST), P39743
T1 chain: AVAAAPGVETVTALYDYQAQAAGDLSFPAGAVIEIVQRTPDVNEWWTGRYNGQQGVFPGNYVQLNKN

T2: Boi1 SH3 (BOI1_YEAST), P38041
T2 chain: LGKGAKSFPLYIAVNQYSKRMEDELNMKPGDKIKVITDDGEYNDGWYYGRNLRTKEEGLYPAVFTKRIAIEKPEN

T3: Yhr016c SH3 (YSC84_YEAST), P32793
T3 chain: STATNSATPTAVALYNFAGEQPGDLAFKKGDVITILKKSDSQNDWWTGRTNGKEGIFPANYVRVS

T4: Yfr024 SH3 (LSB3_YEAST), P43603
T4 chain: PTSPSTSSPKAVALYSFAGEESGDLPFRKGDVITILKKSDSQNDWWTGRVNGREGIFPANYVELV

T5: Boi2 SH3 (BOI2_YEAST), P39969
T5 chain: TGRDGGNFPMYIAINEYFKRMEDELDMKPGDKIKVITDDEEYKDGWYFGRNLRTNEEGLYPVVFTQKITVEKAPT


Assays:
Experiment in all cases: SPOT array
[1] = molecular target: T1, Rvs167 SH3 (RV167_YEAST), P39743
[2] = molecular target: T2, Boi1 SH3 (BOI1_YEAST), P38041
[3] = molecular target: T3, Yhr016c SH3 (YSC84_YEAST), P32793
[4] = molecular target: T4, Yfr024 SH3 (LSB3_YEAST), P43603
[5] = molecular target: T5, Boi2 SH3 (BOI2_YEAST), P39969

| Binder | normalised SPOT signal, Boehringer light units (BLU); mean over the file's lines of this peptide [1] | normalised SPOT signal, Boehringer light units (BLU); mean over the file's lines of this peptide [2] | normalised SPOT signal, Boehringer light units (BLU); mean over the file's lines of this peptide [3] | normalised SPOT signal, Boehringer light units (BLU); mean over the file's lines of this peptide [4] | normalised SPOT signal, Boehringer light units (BLU); mean over the file's lines of this peptide [5] |
| --- | --- | --- | --- | --- | --- |
| DFRPRMPKRQRIPP [YMR125W 18-31] | 87.3 | 776 | 211 | 835 | 96.7 |
| DHKPENPIRTFKDL [YBL042C 90-103] | 120 | 167 | 175 | 238 | 122 |
| DGRPHSPLRARSAT [YFL007W 51-64] | 75.7 | 1690 | 193 | 1500 | 21.9 |
| DIHPSLPVRTRFAP [YOL033W 38-51] | 943 | 6780 | 5090 | 24600 | 30.2 |
| DESPIDPSKAPKVP [YGR130C 350-363] | 0 | 110 | 120 | 0 | 11.7 |

Next, values leading:

| normalised SPOT signal, Boehringer light units (BLU); mean over the file's lines of this peptide [1] | normalised SPOT signal, Boehringer light units (BLU); mean over the file's lines of this peptide [2] | normalised SPOT signal, Boehringer light units (BLU); mean over the file's lines of this peptide [3] | normalised SPOT signal, Boehringer light units (BLU); mean over the file's lines of this peptide [4] | normalised SPOT signal, Boehringer light units (BLU); mean over the file's lines of this peptide [5] | Binder |
| --- | --- | --- | --- | --- | --- |
| 111 | 632 | 992 | 7440 | 169 | DERPFRPKRTSRSA [YGL165C 149-162] |
| 62.6 | 77.3 | 2420 | 9640 | 112 | DEPPSFPKRWGWLK [YIL067C 85-98] |
| 277 | 64.2 | 179 | 15.3 | 59.7 | DFTPVEPSKMREYI [YBR202W 629-642] |
| 23.6 | 37.6 | 0 | 164 | 16.5 | DETPFFPDKIQKSF [YPR060C 81-94] |
